Reference: publication PMC3695229

Experiments:
TGFR-3-ZP(ΔC) (mouse) = TGFR-3-ZP(ΔC) (mouse) (UniProt O88393); test: SEC; analytical SEC of the ligand-free protein on Superdex 200 10/300, 4°C, 0.5 ml/min; apparent molecular weight against standards
TGF-β3 (Homo sapiens) = TGF-β3 (Homo sapiens) (UniProt P10600); conditions: cited from earlier work
TGF-β2 (Homo sapiens) = TGF-β2 (Homo sapiens) (UniProt P61812); conditions: cited from earlier work
TGF-β1 (Homo sapiens) = TGF-β1 (Homo sapiens) (UniProt P01137); conditions: cited from earlier work
[1] = molecular target: P1-mZP (C-terminus mimetic peptide of murine TGFR-3-ZP, residues 735-782) (mouse) (UniProt O88393); test: SPR; ProteOn XPR36; biotinylated peptides immobilised on neutravidin (300-600 RU), TGF-β2 as analyte; 25°C, HBS150 (10 mM HEPES pH 7.4, 150 mM NaCl, 3.4 mM EDTA, 0.005% Tween 20); kinetic fit 1:1 Langmuir with or without mass transfer; avidity of dimeric TGF-β2 expected
[2] = molecular target: P2-hZP (C-terminus mimetic peptide of human TGFR-3, residues 737-788) (human) (UniProt Q03167); test: as above
[3] = molecular target: P4-mZP (17mer peptide of murine TGFR-3, residues 732-748) (mouse) (UniProt O88393); test: as above
[4] = molecular target: P5-hZP (17mer peptide of human TGFR-3, residues 734-750) (human) (UniProt Q03167); test: as above

Sequence of P2-hZP (C-terminus mimetic peptide of human TGFR-3, residues 737-788) (human) (Q03167 737-788): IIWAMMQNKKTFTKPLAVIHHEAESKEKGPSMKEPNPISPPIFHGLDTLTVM
Sequence of P1-mZP (C-terminus mimetic peptide of murine TGFR-3-ZP, residues 735-782) (mouse) (O88393 735-782): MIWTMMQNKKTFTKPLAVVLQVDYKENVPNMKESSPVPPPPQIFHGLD
Sequence of TGFR-3 membrane-proximal ectodomain C-terminal half of ectodomain (P26342 410-781): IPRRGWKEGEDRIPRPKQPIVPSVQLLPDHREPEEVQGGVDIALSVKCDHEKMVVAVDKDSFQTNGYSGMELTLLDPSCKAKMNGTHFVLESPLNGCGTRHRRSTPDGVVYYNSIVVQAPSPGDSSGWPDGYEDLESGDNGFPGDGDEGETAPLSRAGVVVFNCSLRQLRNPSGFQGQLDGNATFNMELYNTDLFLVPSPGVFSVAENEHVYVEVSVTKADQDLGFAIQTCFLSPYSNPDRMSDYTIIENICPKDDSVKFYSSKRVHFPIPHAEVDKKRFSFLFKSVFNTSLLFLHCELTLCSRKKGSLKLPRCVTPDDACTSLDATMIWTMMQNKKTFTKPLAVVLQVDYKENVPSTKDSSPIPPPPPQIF
Sequence of TGF-β2 (Homo sapiens) (P61812 303-414): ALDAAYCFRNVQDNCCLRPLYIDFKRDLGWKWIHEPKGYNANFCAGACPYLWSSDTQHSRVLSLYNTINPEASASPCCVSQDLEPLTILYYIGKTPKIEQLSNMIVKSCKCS
Sequence of TGF-β1 (Homo sapiens) (P01137 279-390): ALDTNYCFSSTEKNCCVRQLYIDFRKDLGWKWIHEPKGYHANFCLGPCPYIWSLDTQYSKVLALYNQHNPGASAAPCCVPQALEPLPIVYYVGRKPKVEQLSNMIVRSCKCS
Sequence of TGF-β3 (Homo sapiens) (P10600 301-412): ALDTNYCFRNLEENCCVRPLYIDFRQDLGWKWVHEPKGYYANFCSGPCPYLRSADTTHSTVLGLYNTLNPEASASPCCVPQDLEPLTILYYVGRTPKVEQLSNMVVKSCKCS

**Q.** Which stoichiometry N (TGFR-3-ZP(ΔC) (mouse)) does the source give for “TGFR-3-ZP(ΔC) (from UniProt O88393 438-734) (domain or fragment)” here?
**A.** The stoichiometry N was 2.

**Q.** What does the source list for “TGFR-3 membrane-proximal ectodomain C-terminal half of ectodomain (from UniProt P26342)”?
**A.** Kd (TGF-β3 (Homo sapiens)): 5800 nM; Kd (TGF-β2 (Homo sapiens)): 2600 nM; Kd (TGF-β1 (Homo sapiens)): 9700 nM

**Q.** What does the source list for human TGF-β2 (ligand)?
**A.** Kd [1]: 7.9 nM; koff [1]: 0.029 s⁻¹; kon [1]: 5.2e+06 M⁻¹ s⁻¹; Kd [2]: 15 nM; koff [2]: 0.044 s⁻¹; kon [2]: 4.4e+06 M⁻¹ s⁻¹; Kd [3]: 192 nM; koff [3]: 0.02 s⁻¹; kon [3]: 110000 M⁻¹ s⁻¹; Kd [4]: 353 nM; koff [4]: 0.029 s⁻¹; kon [4]: 79000 M⁻¹ s⁻¹
